Key:
[1] = target: MERS-five-helix bundle (MERS-5HB) (MERS-CoV) (UniProt K0BRG7); assay: ELISA
MERS-HR2P (MERS-CoV) [2] = assay: ELISA
MERS-HR2P (MERS-CoV) [3] = assay: BLI

Row | Substance | EC50 [1] [nM] | EC50 (MERS-HR2P (MERS-CoV) [2]) [nM] | Kd (MERS-HR2P (MERS-CoV) [3]) [nM] | koff (MERS-HR2P (MERS-CoV) [3]) [s⁻¹] | kon (MERS-HR2P (MERS-CoV) [3]) [M⁻¹ s⁻¹]
1 | MERS-HR2P (peptide) | 31.8 |  |  |  | 
2 | MERS-five-helix bundle (MERS-5HB) (from UniProt K0BRG7) (designed binder) |  | 5.4 | 0.24 | 1.26e-05 | 52600

— publication PMC5618021
